Results on one molecule are retold here after patent US20260355328A1, “A complex comprising a cargo and a targeting moiety binding intelectin-1” (Stichting Radboud universitair medisch centrum, priority 2022, published 2026).

“Also recorded” adds a separate entry of the source.

One data set has as its system ITLN-1. As to conditions: intestinal epithelial cells, literature; cited from earlier work.
The conditions of data set [1]: literature; cited from earlier work.
The conditions of data set [2]: literature; cited from earlier work. The source holds these as a separate data set.
Data set [3] in a line: Biodistribution of full-length lactoferrin, lactoferricin and hLF-6 in LPS-challenged mice (IVIS). The note with it: fluorescent label, i.v., 2 h. Format: in vivo. Here is the method:
Lactoferrin and lactoferricin are cloned in an expression plasmid containing the C-terminal Sortase-sequence protein-LPETG-HHHHHH. LPETGHHHHHH is SEQ ID NO: 98. Next, the protein is expressed overnight in E. coli and purified from sonicated bacterial cell lysates by Ni-NTA beads using 400 mM imidazole to elute the proteins. After overnight dialysis, full-length lactoferrin and hLF-6 are labelled by means of a Sortase exchange reaction on the C-terminus with a fluorescent dye (Alexa647 or Cy5.5) for 2 h at 4 °C using a fluorescently labelled donor peptide (formula:biotin-GSSG-LPETG-label or biotin-GSSG-LPETG-PEG40k-label) as substrate GSSGLPETG is SEQ ID NO: 99. Excess donor peptide is removed by means of streptavidin binding of the biotin tag on the N-terminus of the donor peptide. Next, the purified labelled protein/peptide is injected into LPS-challenged mice via intravenous injection in the tail vein. Mice are sacrificed after 2 h, and organs harvested for imaging by IVIS. Biodistribution is quantified for each organ, and relative distribution is shown.

B1: full-length lactoferrin: full-length human lactoferrin protein (protein, UniProt P02788 1-710, looked up)
chain: MKLVFLVLLFLGALGLCLAGRRRSVQWCAVSQPEATKCFQWQRNMRKVRGPPVSCIKRDSPIQCIQAIAENRADAVTLDGGFIYEAGLAPYKLRPVAAEVYGTERQPRTHYYAVAVVKKGGSFQLNELQGLKSCHTGLRRTAGWNVPIGTLRPFLNWTGPPEPIEAAVARFFSASCVPGADKGQFPNLCRLCAGTGENKCAFSSQEPYFSYSGAFKCLRDGAGDVAFIRESTVFEDLSDEAERDEYELLCPDNTRKPVDKFKDCHLARVPSHAVVARSVNGKEDAIWNLLRQAQEKFGKDKSPKFQLFGSPSGQKDLLFKDSAIGFSRVPPRIDSGLYLGSGYFTAIQNLRKSEEEVAARRARVVWCAVGEQELRKCNQWSGLSEGSVTCSSASTTEDCIALVLKGEADAMSLDGGYVYTAGKCGLVPVLAENYKSQQSSDPDPNCVDRPVEGYLAVAVVRRSDTSLTWNSVKGKKSCHTAVDRTAGWNIPMGLLFNQTGSCKFDEYFSQSCAPGSDPRSNLCALCIGDEQGENKCVPNSNERYYGYTGAFRCLAENAGDVAFVKDVTVLQNTDGNNNEAWAKDLKLADFALLCLDGKRKPVTEARSCHLAMAPNHAVVSRMDKVERLKQVLLHQQAKFGRNGSDCPDKFCLFQSETKNLLFNDNTECLARLHGKTTYEKYLGPQYVAGITNLKKCSTSPLLEACEFLRK
modifications: full-length
notes: full-length human lactoferrin protein
With B1, the “uptake upon overexpression of ITLN-1” value in the data set on ITLN-1 is reported as “increases uptake of lactoferrin in endosomes”. The ribonuclease activity entry in data set [1] is recorded as “pyrimidine-specific ribonuclease activity”. Also, the “biodistribution of radioactive-labelled full-length protein” value in data set [2] is “comprise multiple organs and not primarily the kidney; also recorded: distribution to many organs”. In addition, the bio-distribution entry in data set [3] is “accumulation predominantly in liver and spleen and less in kidney, brain and intestine”.
